Laboratory results taken from publication doi:10.1101/2022.11.15.516577 (bioRxiv, 2022).
Read-outs that look alike come from different tables or passages of the source.

Columns and labels:
Experiment in all cases: single-molecule TIRF colocalisation with deconvolution of colocalisation times
[1] = target: T1, N-terminally SNAP-tagged human β2-adrenergic receptor (SNAP-β2AR) (human, UniProt P07550 1-413, SNAP-Surface Alexa Fluor 647 on the SNAP-tag)
[2] = target: T1, N-terminally SNAP-tagged human …; remark: listed apart in the source
[3] = target: T1, N-terminally SNAP-tagged human …; remark: listed apart in the source

- fold increase in kon versus basal [1]: ~1.8 fold
- koff [2]: 1.34 s⁻¹
- fold increase in kon versus basal [3]: ~1.4 fold
B1: C-terminally Halo-tagged bovine β-arrestin 2 (βArr2-Halo) (natural protein)
chain: MGEKPGTRVFKKSSPNCKLTVYLGKRDFVDHLDKVDPVDGVVLVDPDYLKDRKVFVTLTCAFRYGREDLDVLGLSFRKDLFIANYQAFPPTPNPPRPPTRLQERLLRKLGQHAHPFFFTIPQNLPCSVTLQPGPEDTGKACGVDFEIRAFCAKSLEEKSHKRNSVRLVIRKVQFAPEKPGPQPSAETTRHFLMSDRSLHLEASLDKELYYHGEPLNVNVHVTNNSTKTVKKIKVSVRQYADICLFSTAQYKCPVAQVEQDDQVSPSSTFCKVYTITPLLSNNREKRGLALDGKLKHEDTNLASSTIVKEGANKEVLGILVSYRVKVKLVVSRGGDVSVELPFVLMHPKPHDHIALPRPQSAAPETDAPVDTNLIEFETNYATDDDIVFEDFARLRLKGLKDEDYDDQFC
modifications: Halo-JF549 on the Halo-tag (single-molecule microscopy); Halo-R110 on the Halo-tag (BRET)
